# US20210063414A1, “METHODS FOR PREVENTING AND/OR TREATING BONE LOSS CONDITIONS BY MODULATING IRISIN” (Dana-Farber Cancer Institute, Inc., priority 2018, published 2021)
# Assays:
# Test in all cases: Crosslinking/co-immunoprecipitation/mass spectrometry (TMT quantitative proteomics) to identify irisin receptors
# Assay type in all cases: binding
# [1] = biological target: T1, MLO-Y4 cell surface proteins (Mus musculus, UniProt E9Q0C6); conditions: co-precipitated protein Gm14569 (E9Q0C6_MOUSE)
# T1 construct: endogenous in cells; host or cells: MLO-Y4
# How it was run: (§1)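 Relative protein abundance came from 6-plex TMT MS3 quantitation on an Orbitrap Fusion Lumos, after in-gel trypsin digestion of Coomassie-stained SDS-PAGE lanes. Input was a Ni-NTA pulldown (250 mM imidazole elution) of lysates from murine MLO-Y4 cells. These cells were treated on ice with His-tagged irisin or adipsin (10 nM, 20 min) in serum-free medium, then crosslinked with 1.5 mM DTSSP for 30 min.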
# [2] = biological target: T2, MLO-Y4 cell surface proteins (Mus musculus, UniProt O70404); conditions: co-precipitated protein Vamp8 (VAMP8_MOUSE)
# T2 construct: endogenous in cells; host or cells: MLO-Y4
# T2 sequence (O70404 1-101): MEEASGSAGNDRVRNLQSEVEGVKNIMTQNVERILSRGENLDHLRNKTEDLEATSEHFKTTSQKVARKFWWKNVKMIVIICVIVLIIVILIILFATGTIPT
# How it was run: as §1
# [3] = biological target: T3, MLO-Y4 cell surface proteins (Mus musculus, UniProt Q8BJQ9); conditions: co-precipitated protein Csgalnact1 (CGAT1_MOUSE)
# T3 construct: endogenous in cells; host or cells: MLO-Y4
# T3 sequence (Q8BJQ9 1-530): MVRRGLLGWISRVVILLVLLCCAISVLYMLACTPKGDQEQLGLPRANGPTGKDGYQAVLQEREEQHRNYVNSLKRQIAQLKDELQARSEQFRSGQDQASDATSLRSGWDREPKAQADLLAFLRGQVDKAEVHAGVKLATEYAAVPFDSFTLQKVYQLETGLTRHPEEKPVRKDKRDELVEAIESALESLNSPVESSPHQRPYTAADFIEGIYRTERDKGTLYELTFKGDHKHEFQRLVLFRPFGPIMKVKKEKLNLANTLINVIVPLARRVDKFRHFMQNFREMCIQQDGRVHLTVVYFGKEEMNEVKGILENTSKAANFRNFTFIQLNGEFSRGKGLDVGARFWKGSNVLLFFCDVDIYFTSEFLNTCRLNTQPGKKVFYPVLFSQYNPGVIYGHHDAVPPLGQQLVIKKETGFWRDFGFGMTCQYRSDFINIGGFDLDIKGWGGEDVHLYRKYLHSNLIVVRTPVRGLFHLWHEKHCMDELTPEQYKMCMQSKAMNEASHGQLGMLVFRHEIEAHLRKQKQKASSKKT
# How it was run: as §1
# T1 sequence (E9Q0C6 whole entry): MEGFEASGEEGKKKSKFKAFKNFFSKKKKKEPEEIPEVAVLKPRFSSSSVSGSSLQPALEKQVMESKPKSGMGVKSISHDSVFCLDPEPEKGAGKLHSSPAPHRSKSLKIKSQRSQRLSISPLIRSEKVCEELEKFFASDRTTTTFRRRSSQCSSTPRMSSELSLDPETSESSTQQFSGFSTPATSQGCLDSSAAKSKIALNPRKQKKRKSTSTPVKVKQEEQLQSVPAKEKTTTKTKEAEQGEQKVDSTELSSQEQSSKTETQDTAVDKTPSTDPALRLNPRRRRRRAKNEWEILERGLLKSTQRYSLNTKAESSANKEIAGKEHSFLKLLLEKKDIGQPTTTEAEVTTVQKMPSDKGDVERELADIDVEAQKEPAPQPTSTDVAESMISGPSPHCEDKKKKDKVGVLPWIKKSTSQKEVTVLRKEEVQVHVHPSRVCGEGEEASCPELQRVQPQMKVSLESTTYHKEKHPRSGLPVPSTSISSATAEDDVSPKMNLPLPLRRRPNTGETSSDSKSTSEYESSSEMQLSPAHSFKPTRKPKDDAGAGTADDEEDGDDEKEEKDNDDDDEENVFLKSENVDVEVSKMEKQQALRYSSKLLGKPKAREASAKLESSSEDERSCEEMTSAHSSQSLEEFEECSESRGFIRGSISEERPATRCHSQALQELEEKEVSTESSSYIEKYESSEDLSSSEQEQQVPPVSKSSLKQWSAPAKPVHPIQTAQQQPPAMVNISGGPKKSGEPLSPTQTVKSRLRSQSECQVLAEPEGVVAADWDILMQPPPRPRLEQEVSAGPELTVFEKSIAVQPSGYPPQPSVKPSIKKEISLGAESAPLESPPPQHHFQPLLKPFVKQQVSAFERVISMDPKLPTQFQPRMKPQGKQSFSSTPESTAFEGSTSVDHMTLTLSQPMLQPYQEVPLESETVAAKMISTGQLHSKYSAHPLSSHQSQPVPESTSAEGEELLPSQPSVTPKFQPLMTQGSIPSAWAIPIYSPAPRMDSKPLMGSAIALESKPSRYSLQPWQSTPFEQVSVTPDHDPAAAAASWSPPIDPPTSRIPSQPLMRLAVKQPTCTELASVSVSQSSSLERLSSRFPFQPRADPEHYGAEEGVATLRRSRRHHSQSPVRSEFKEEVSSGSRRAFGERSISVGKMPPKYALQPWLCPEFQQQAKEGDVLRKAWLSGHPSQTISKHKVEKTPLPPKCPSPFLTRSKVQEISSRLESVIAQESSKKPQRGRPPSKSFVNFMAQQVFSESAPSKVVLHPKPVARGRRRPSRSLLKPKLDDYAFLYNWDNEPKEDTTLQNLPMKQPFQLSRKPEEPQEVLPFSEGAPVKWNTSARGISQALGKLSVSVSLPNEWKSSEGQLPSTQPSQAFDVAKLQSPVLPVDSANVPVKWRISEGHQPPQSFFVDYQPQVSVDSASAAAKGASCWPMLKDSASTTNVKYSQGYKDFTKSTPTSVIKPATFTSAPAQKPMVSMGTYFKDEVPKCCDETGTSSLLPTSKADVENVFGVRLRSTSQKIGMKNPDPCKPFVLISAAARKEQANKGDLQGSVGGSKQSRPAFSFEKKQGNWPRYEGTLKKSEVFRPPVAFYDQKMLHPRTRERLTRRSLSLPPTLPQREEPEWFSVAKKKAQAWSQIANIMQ
substance,measurement,setting,value
adipsin,TMT signal-to-noise ratio,[1],224.172
same,TMT signal-to-noise ratio,[2],300.176
same,TMT signal-to-noise ratio,[3],2426.62
